Measured values taken from doi:10.1101/2024.01.29.577855.

Target: recombinant yeast TBC-DEG (TBCD, TBCE, Arl2) (yeast) (UniProt P40987)
Experiment: SEC

Sequence of recombinant yeast TBC-DEG (TBCD, TBCE, Arl2) (yeast) (P40987 whole entry, chain 1 of 3): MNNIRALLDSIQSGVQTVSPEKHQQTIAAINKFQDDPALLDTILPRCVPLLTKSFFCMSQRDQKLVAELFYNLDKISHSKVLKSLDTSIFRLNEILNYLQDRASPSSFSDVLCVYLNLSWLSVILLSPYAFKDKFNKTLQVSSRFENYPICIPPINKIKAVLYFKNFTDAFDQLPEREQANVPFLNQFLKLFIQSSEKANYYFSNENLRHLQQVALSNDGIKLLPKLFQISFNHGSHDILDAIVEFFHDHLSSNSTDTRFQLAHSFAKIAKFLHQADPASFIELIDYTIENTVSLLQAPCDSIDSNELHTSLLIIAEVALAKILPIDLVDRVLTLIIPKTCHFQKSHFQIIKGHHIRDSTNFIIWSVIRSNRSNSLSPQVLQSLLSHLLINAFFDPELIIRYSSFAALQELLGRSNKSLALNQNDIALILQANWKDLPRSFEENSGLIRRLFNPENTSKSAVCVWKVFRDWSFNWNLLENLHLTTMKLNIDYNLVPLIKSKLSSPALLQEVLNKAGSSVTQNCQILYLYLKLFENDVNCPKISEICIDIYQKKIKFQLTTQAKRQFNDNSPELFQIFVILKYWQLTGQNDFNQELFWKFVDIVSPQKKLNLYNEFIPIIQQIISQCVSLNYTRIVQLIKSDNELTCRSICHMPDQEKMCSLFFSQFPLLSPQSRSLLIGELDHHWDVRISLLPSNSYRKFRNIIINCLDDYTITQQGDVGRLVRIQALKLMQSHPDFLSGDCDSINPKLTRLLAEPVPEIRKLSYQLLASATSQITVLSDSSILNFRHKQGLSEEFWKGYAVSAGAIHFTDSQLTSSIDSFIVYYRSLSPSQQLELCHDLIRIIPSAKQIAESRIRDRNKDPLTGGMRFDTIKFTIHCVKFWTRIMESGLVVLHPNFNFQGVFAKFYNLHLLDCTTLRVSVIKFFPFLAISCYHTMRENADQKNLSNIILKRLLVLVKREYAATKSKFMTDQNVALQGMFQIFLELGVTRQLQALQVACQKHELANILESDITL
Sequence of recombinant yeast TBC-DEG (TBCD, TBCE, Arl2) (yeast) (P39937 whole entry, chain 2 of 3, further chain): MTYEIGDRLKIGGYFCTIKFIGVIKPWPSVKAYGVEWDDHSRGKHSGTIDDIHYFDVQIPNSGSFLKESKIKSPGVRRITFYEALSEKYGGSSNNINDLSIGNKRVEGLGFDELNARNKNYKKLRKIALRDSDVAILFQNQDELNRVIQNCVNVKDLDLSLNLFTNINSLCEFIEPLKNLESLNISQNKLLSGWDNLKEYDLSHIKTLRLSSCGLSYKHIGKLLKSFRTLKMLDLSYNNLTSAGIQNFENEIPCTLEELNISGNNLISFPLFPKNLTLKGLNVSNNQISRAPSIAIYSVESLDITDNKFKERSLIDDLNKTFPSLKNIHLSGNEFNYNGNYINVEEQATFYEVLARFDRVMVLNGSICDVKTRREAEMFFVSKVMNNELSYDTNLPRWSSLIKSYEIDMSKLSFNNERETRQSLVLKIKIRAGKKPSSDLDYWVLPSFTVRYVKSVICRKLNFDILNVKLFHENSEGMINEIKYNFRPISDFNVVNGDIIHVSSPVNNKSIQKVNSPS
Sequence of recombinant yeast TBC-DEG (TBCD, TBCE, Arl2) (yeast) (P39110 whole entry, chain 3 of 3, further chain): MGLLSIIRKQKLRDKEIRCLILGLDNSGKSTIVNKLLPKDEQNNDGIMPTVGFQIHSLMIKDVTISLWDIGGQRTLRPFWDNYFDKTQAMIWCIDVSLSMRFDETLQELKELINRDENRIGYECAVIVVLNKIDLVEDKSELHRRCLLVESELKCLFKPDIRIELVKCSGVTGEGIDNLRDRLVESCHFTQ

stoichiometry N: 1
Substance: porcine brain αβ-tubulin heterodimer (from UniProt P02550 1-451; P02554 1-445) (complex)
